Experimental data taken from doi:10.1101/2021.11.19.469356 (bioRxiv, 2021).
Where “and” joins values, the source holds several entries; their conditions need not be identical. Equal entries are not always repeated. Where no end group is shown, it is not given here.

Assays:
[1] = target: T1, MED25 ACID (residues Leu389-Asn543), recombinant (human, UniProt Q71SY5 389-543); experiment: NMR titration
T1 sequence: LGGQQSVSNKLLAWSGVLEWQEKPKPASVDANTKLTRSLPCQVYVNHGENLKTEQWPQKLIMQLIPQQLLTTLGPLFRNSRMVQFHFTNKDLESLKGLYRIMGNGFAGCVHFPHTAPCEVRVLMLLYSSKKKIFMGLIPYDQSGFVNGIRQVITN

[2] = target: T1, MED25 ACID (residues Leu389-Asn543), …; experiment: pull-down

B1: N-acetylated NS1 α3 peptide (RSV NS1 residues Ser118-Pro139) (peptide)
peptide: Ac-SDSTMTNYMNQLSELLGFDLNP
Kd [1]: 17 ± 8 µM | apparent Kd, second site of lower affinity (H1 face) [1]: 200 µM and 1000 µM

B2: GST-ATF6αTAD (residues 1-150) (domain or fragment)
chain: MGEPAGVAGTMESPFSPGLFHRLDEDWDSALFAELGYFTDTDELQLEAANETYENNFDNLDFDLDLMPWESDIWDINNQICTVKDIKAEPQPLSPASSSYSVSSPRSVDSYSSTQHVPEELDLSSSSQMSPLSLYGENSNSLSSAEPLKE
binding result [2]: binds
